Assay results published in the supplement of paper PMC9170038.

system: K4 kissing-loop RNA reporter; assay: apparent KD of K4 kissing-loop reporter; higher = weaker reporter binding; conditions: Eterna round: R107; input ligand: none
Experimental: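 RNA-MaP round R107: designed RNA switches with theophylline, tryptophan, arginine or FMN aptamers are transcribed on-chip within common flanks. They are titrated with a labelled K4 kissing-loop RNA reporter in RNA-MaP buffer (100 mM Tris pH 7.5, 80 mM KCl, 4 mM MgCl2), without ligand or with the indicated ligand. Median apparent KD per design.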
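Note: bound reporter read as fluorescence of individual clusters on recovered sequencing chips by microscopy, with normalized cluster intensities fitted with a binding model.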

Sequence | apparent KD of K4 kissing-loop reporter [µM]
CGAUGUUCCUGGGAUACCAGUCGGAGUCUCAGAGCUCGGAGUGAUGUUCUGGGAUGUUUCGGCCCUUGGCAGCUCUGGGACUCCC [#2 Exclusion - Theophylline B Attempt #23 (HarryS)] | 0.818
AGUGAUGUGGGAAGGAGCGGUUAAUGAAUUCAGUGAUGUUGAAGUGAUGCUGAAAUGAUGUGCCAGGUAGGUCGCCUAGAUGUUA [KL-XARG B28] | 0.245
GCCAUCUACUAAGGAUAUUAAGUCAAUAUUUGUGGUGCCAUCUGUCGUUCAGGGCAGUGAUGUUGCUAAGAAGGUAGUCUGUCGG [theeternabot_exclusion_KL_FMN_B_39] | 0.636
CCUUCCCUUGAUAGUGAUGUUAUCAAGGACAAGGAUAUCAUCUCAAUGAGAAGGUGUCCUUGAUAACAUGGAGGUCUGAAACAGA [Omei KL FMN A Exc C v2] | 0.132
GUCUGCGUCUCGGCCGCCACUCACUAGUGAUGUUAGUAAGGAGCGACUAGAGAAGUCCAGUUGAUGAGGACCGGGAGACGCAAAA [Exclusion Tryptophan B GF4] | 0.0957
AGGAUGUAGUGAUGUUAUAUAAGAAGUAAACGAGGACCGGUACGGCCGCCACUCGAAGCGGCUACUAGCGCGCCGCGAGGCGCGC [ExTryptoA.Cb] | 0.958
CGUGCCCAGCCGGAUACCAGUGACCCGCUGGGAACCGCGGGCCCAGAGUGAUGUUCGGGACACCCUUGGCAGCCGCCUGGGCGGC [#2 Same State - Theophylline B Attempt #12 (HarryS)] | 0.462
AUUUAAUUAACUGAUACCAGACUUAAUGUUUUGUAUAUUACUAGUGAUGUUAGUGAUUCUGUCCCUUGGCAGCAGUAUCUACUUA [JR_ExcTheophyB_Sub014] | 0.152
AACUGUCAAGGCCAACAUUACUGAGGUGAUACCAGCAUCGAAAGAUGCCCUUGGCAGCACCAACUUGCAGUGAUGUUGCAAGUAA [BrourdMod 13 - Jieux - Exclusion - Theophylline A] | 0.234
CAUGCCAUGAUCCUCCUGGUAUCUCCUGAUACCAGCGUGCUGACACGCCCUUGGCAGCAGGAGUCGAGAGUGAUGUUGUCGAGAA [KL-SSTheo-A9 #analogue] | 0.184
GCUAGGCAUGCAGGAUAUCGCCGAGUGAUGUUCGGUAGGCCGCUUUCUUUCUUUCUUUGCGGCCAGCGAGAAGGGCAUGCCUAGC | 0.108
UAUUUAAUGUCAGGAUAUCGUAUACGAGUGAUGUUCGUAUUUCUACUAUAGAUUAUUUAAAUUUUUCGAGAAGGGACAAUAUUUA [KL-SSFMN-B4] | 0.193
UGUAUGUGAUUUGAUACCAGACCAGCUGGUGGUAUAUGAGUGAUGUUCAUGUUGGUGUGGGUCCCUUGGCAGCAAAUCGCAUACU [KL-SSTheoB9] | 0.237
AAAAUUGCGGUCGAAAGAACUUCUUGCAUACGAGGACCGGUACGGCCGCCACUCGAGUCAAGUGAUGUUUGAUUUUCUAUUAUUA [JR_ExcTryptoA_Sub013] | 0.16
GGAUAGGAUAGAGGAUAUGGCUUAUGCAGAAAUAACUUAUUGUGUAAAUCCAUAGGGAGUGAUGUUCCAGAAGGCUGUCCUAUCG [MatMod 16 - Jieux - Exclusion - FMN B] | 0.235
AGUGAUGUGGGAAGGAGCGGUAUAUGAAUUCAGUGAUGUUGAAGUGAUGCUGUAAUGAUGUGCCAGGUAGGUCGCCUAGAUGUUA [KL-XARG B26] | 0.244
ACGCGCGCGAGUGAUGUUCGGAGCGGCUGGCAGGAUAUGUAGCAAUGCAGAAGGGUCGUGGCGCGUCCAGGGUAACCUGGACGCG [#2 Exclusion - FMN A Attempt #26 (HarryS)] | 1.04
UGAUCUCAGUGAUGUUGAGAUCAAACUGAUACCAGUCAAUUUAGUGACCCUUGGCAGCAGUAUACCAAGGGAUCUUAUGAGAUCA [Theo A SS t5] | 0.165
CGAGUCCUGAGGAGUGAUGUUCCUCGGCCACGAGGACCGGUACGGCCGCCACUCGUUACUCGAGCUUAGUAGCUAGCACUAAGCC [Zaussora] | 0.179
AAAUAGCUGACGUUGAGUGGGAGCCAGGCACGAGGACCGGUACGGCCGCCACUCGACUAGGUUUUCAGUGAUGUUGAAAAUUUAA [Exclusion Tryptophan A GF 5] | 0.206
AAGCAGUCACUCGAAUCCAUCGAAGAUGGGCGAGGACCGGUACGGCCGCCACUCGGAGUGAUGUUCCGCAGACUGCAAAAUAAAA | 0.863

same assay, conditions: Eterna round: R107; input ligand: theophylline 20 uM

Sequence | apparent KD of K4 kissing-loop reporter [µM]
AAGUACACGAUAGUGUACACCUAGUGAUGUUAGGAUAUGCAGAUAUGCAGAAGGAGCAAGUCAUCUGACAAUAGUCGGAUGACAA [FmnAX 7 #OpenEnded #K4Early] | 0.107
AGCAAUAUCACGGCCGCCACUGAAUAUUGUUUUUAUAGUUAUAAAUCUUGCCAGUGAUGUUGGUUCAGGACCGGGUGAGUUAAUA [JR_SSTryptoB_Sub003] | 0.748
AGCCAUCACACGGCCGCCACUGAGUAGUGAUGUUGCUUGUAAAUCAGUCACCGCAUUAAUGCCGACAGGACCGGGUGCAUCGAGG [theeternabot_exclusion_KL_Trp_B_17] | 0.394
GGAGAGCGAAAAGGAUAUGCGUCCGUCAAAAUUAUGUAGCGCGGAAAAUGGUAGUGAUGUUGCAAAGCAGAAGGUUUCAGAUGUA [theeternabot_sameState_KL_FMN_B_43] | 0.519
AGUGAUGUGGGAAGGAGCGGUAUAUGAGUUCAGUGAUGUUGAAGUGAUGAUAUAGUGAUGUGCCAGGUAGGUCGCCUAGAUGUUA [KL-XARG-B5] | 0.146
AGACUACUGACAGGAUAUAACAUAUUAGCUCGUAUACCAAAGGUAUACGAGCACCUUCUAGUGAUGUUAGAAGGGUCGGUAGUCA [Omei KL FMN B Exc B v1] | 0.0962
UGCACGGGCUCGGCCGCCACUCCCGCGGGUCGCAAGGUCCGCUACUGAGUGAUGUUCGGUUGGAGGAGGACCGGGAGCCCGUGCA [#2 Exclusion - Tryptophan B Attempt #27 (HarryS)] | 0.112
UUUAAAUAUAGUGAUGUUAUAUAACAAUGACGAGGACCGGUACGGCCGCCACUCGAGAGAGAUAAUGGUCUUACAAAUGUAAGUU [AstrosSSTryA#9] | 0.822
ACCAUCAAAGAUGGCCAGGACACCGCUGAUACCAGAGUGAAAACACUCCCUUGGCAGCAGGUGAGUGAUGUUCACAGUCCAUGGA [Omel KL Theo A SS B v2] | 0.901
AAAAUAAAUAGCAGUCAUGGAGUGAUGUUCCGAGGACCGGUACGGCCGCCACUCGACCAUCAUAAGAUGGAAUGGCAAGACUGCA [#SwitchBubble 23 #K4Early] | 0.418
GGUGUUGUUUGUGCUGUUUUCCUCGUUCCUCGAGGACCGGUACGGCCGCCACUCGAGUGAUGUUUGGGUAGCGAUCCCUGUUAGU [Bdazzled - #8 Exc. Tryptophan A] | 0.649
UGUGAGCUGUCGACAAAAGUCGACUAAAAUGAGGAUAUGACGAAAGUCAGAAGGCAUCAAUAAUGGAGUGAUGUUCCUGCUCACU [FmnA 9 U30+A56] | 0.79
GGGAGUAGUGCGGCCGCCACUGAGAAAGAAGAAGAAUAUAGUGAUGUUAUAUAGGAAUAAAAGAACAGGACCGGGCAUUAGAUUU [SSTRyptB.T] | 0.196
AUAUGCAGGAGAAGGAGCGUCGUUUCAAGUGAUGUUUGCAAGCGAGCUUACUAUAUAAGACGACAGGUAGGUCGCUCCUGCGUAA [#06 K4 Arginine B Exclusion] | 0.141
GAUUGGCGGACGGCCGCCACUCGGACGAGUCACAGUGAUGUUGUGGUUUGCCAGUCGACUUCAUCGAGGACCGGGUUUGUCGGGC [Exclusion Tryptophan B GF 21] | 0.405
AAUAUAGUGAUGUUAUAUAAGAAGGAGUUACGAGGACCGGUACGGCCGCCACUCGAAACGAGUGAGGGCCCGGGAGAUUGGGCCC [SSTryptA.G] | 0.436

Sequence | apparent KD of K4 kissing-loop reporter [µM]
AACUGCUAAGAGGUUAAGCACGUCAUUAUGAAGGAUAUAGAAUUCACUAGAAGGUCAUGUGCCCUGAGUGAUGUUCAGAUAGGCG [theeternabot_sameState_KL_FMN_A_25] | 0.421
AUACAUGUAAAUCUAUAUGUAUAAUGGAGCCGAGGACCGGUACGGCCGCCACUCGGAGUAAUCGGAGUGAUGUUCCGAAAUGUAC [KL-SSTryp-A sub13] | 0.123
AUUAAUUUCAGAGGAUAUCGUAAUUUUAUUUUAUUUUUUCAUUUAUGCAGUGAUGUUGCAUUUAUUCGAGAAGGCUGAUUUAUAA [JR_SSFMNB_Sub021] | 0.0696
GGAGUUACCUGGGAUACCAGUCGGAGUCCCAGAGCUCGGAGUGAUGUUCUGGGAUGUUUCGGCCCUUGGCAGCUCUGGGACUCCC [#2 Exclusion - Theophylline B Attempt #9 (HarryS)] | 0.726
GACUGGAGUGAUGUUCCAUUAACGAUCCUACGAGGACCGGUACGGCCGCCACUCGAAAUGCAGUGAUGUUGCAGCCAGCCGUACU [Exclusion Trptophan A GF 8] | 0.192
CGAUGUUCCUGGGAUACCAGUCGGAGUCUCAGAGCUCGGAGUGAUGUUCUGGGAUGUUUCGGCCCUUGGCAGCUCUGGGACUCCC [#2 Exclusion - Theophylline B Attempt #23 (HarryS)] | 0.682
AGUGAUGUGGGAAGGAGCGGUUAAUGAAUUCAGUGAUGUUGAAGUGAUGCUGAAAUGAUGUGCCAGGUAGGUCGCCUAGAUGUUA [KL-XARG B28] | 0.164
GCCAUCUACUAAGGAUAUUAAGUCAAUAUUUGUGGUGCCAUCUGUCGUUCAGGGCAGUGAUGUUGCUAAGAAGGUAGUCUGUCGG [theeternabot_exclusion_KL_FMN_B_39] | 0.593
CCUUCCCUUGAUAGUGAUGUUAUCAAGGACAAGGAUAUCAUCUCAAUGAGAAGGUGUCCUUGAUAACAUGGAGGUCUGAAACAGA [Omei KL FMN A Exc C v2] | 0.128
GUCUGCGUCUCGGCCGCCACUCACUAGUGAUGUUAGUAAGGAGCGACUAGAGAAGUCCAGUUGAUGAGGACCGGGAGACGCAAAA [Exclusion Tryptophan B GF4] | 0.0858
AGGAUGUAGUGAUGUUAUAUAAGAAGUAAACGAGGACCGGUACGGCCGCCACUCGAAGCGGCUACUAGCGCGCCGCGAGGCGCGC [ExTryptoA.Cb] | 0.361
CGUGCCCAGCCGGAUACCAGUGACCCGCUGGGAACCGCGGGCCCAGAGUGAUGUUCGGGACACCCUUGGCAGCCGCCUGGGCGGC [#2 Same State - Theophylline B Attempt #12 (HarryS)] | 0.44
AUUUAAUUAACUGAUACCAGACUUAAUGUUUUGUAUAUUACUAGUGAUGUUAGUGAUUCUGUCCCUUGGCAGCAGUAUCUACUUA [JR_ExcTheophyB_Sub014] | 0.153
AACUGUCAAGGCCAACAUUACUGAGGUGAUACCAGCAUCGAAAGAUGCCCUUGGCAGCACCAACUUGCAGUGAUGUUGCAAGUAA [BrourdMod 13 - Jieux - Exclusion - Theophylline A] | 0.307
CAUGCCAUGAUCCUCCUGGUAUCUCCUGAUACCAGCGUGCUGACACGCCCUUGGCAGCAGGAGUCGAGAGUGAUGUUGUCGAGAA [KL-SSTheo-A9 #analogue] | 0.373
